Reference: publication PMC11048322, “Weak Value Amplification-Based Biochip for Highly Sensitive Detection and Identification of Breast Cancer Exosomes”

How the values were obtained:
Conditions in all cases: protein: native; label: Au NP (about 58 nm) via thiol
[1] = biological target: T1, EpCAM (on MDA-MB-231 exosomes) (UniProt P16422 24-314); assay: weak value amplification optical biosensor; multivalent Au NP-aptamer on exosomes; CW shift about 0.85 nm; Au NP-aptamer dispersed in ultrapure water, flowed over exosomes captured on Zr-ionized glass; pH and temperature not stated
T1 sequence: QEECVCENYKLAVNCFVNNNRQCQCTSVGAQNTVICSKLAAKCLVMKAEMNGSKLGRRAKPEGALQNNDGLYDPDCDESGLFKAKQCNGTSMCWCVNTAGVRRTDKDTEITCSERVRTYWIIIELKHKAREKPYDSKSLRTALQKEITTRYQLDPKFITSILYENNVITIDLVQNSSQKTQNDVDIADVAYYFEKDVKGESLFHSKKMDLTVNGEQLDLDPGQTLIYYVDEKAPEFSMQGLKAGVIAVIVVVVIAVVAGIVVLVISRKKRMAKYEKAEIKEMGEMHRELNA

[2] = biological target: T2, CD63 (on MDA-MB-231 exosomes) (UniProt P08962 2-238); assay: weak value amplification optical biosensor; TEM; multivalent Au NP-aptamer on exosomes; Au NP-aptamer dispersed in ultrapure water, flowed over exosomes captured on Zr-ionized glass; pH and temperature not stated
[3] = biological target: T2, CD63 (on MDA-MB-231 exosomes); assay: weak value amplification optical biosensor; multivalent Au NP-aptamer on exosomes; no significant CW shift; Au NP-aptamer dispersed in ultrapure water, flowed over exosomes captured on Zr-ionized glass; pH and temperature not stated

T2 sequence (P08962 2-238): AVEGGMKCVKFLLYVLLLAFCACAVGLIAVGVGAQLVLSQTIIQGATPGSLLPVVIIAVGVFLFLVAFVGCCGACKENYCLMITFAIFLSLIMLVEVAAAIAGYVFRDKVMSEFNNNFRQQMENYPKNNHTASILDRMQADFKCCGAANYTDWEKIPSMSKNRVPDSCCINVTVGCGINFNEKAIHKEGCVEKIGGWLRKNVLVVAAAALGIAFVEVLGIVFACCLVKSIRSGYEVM

## CACTACAGAGGTTGCGTCTGTCCCACGTTGTCATGGGGGGTTGGCCTG (ssDNA, 5'-SH C6) [EpCAM aptamer]
[1]
  binding result: binds

## CACCCCACCTCGCTCCCGTGACACTAATGCTA (ssDNA, 5'-SH C6) [CD63 aptamer]
[2]
  binding result: binds

## ACTCTTCACCCGCACATTCGCATCGCCCAAGC (ssDNA, 5'-SH C6) [Scrambled CD63 (SCD63)]
[3]
  binding result: no binding
